Target: the molecule itself
Test: crystal structure; MvfR LBD with the inhibitor M64 bound; space group C 2 2 2_(1), 2.65 Å, two monomers in the asymmetric unit; tetrameric arrangement in the crystal

B1: MvfR ligand binding domain (LBD), residues 94 to 295 (domain or fragment)
chain: TNLRVLLDTAIPPSFCDTVSSVLLDDFNMVSLIRTSPADSLATIKQDNAEIDIAITIDEELKISRFNQCVLGYTKAFVVAHPQHPLCNASLHSIASLANYRQISLGSRSGQHSNLLRPVSDKVLFVENFDDMLRLVEAGVGWGIAPHYFVEERLRNGTLAVLSELYEPGGIDTKVYCYYNTALESERSFLRFLESARQRLREL
notes: Thr that precedes residue 94 in the construct (His-THB-SUMO-ULP-Thr) and is left after cleavage with SEN protease; the model numbers it Thr93; Q9I4X0 is the entry of strain PAO1; Cloned into pET28a; the model comprises Thr93 to Leu295; also called MvfR LBD; PqsR LBD; source: E. coli BL21(DE3), purified (Ni-NTA, negative Ni-NTA after cleavage of the tag with SEN protease, gel filtration); not …
How did the “stoichiometry N” value turn out when B1 was run?
The value was 4.
